In patent US20090093372A1:

Target: human E-cadherin on human embryonic stem cells (hESCs; CyT203) (human) (UniProt P12830)
Experiment: cell-based or functional assay

Chain of UniProt P12830 (P12830 155-882 limits assumed): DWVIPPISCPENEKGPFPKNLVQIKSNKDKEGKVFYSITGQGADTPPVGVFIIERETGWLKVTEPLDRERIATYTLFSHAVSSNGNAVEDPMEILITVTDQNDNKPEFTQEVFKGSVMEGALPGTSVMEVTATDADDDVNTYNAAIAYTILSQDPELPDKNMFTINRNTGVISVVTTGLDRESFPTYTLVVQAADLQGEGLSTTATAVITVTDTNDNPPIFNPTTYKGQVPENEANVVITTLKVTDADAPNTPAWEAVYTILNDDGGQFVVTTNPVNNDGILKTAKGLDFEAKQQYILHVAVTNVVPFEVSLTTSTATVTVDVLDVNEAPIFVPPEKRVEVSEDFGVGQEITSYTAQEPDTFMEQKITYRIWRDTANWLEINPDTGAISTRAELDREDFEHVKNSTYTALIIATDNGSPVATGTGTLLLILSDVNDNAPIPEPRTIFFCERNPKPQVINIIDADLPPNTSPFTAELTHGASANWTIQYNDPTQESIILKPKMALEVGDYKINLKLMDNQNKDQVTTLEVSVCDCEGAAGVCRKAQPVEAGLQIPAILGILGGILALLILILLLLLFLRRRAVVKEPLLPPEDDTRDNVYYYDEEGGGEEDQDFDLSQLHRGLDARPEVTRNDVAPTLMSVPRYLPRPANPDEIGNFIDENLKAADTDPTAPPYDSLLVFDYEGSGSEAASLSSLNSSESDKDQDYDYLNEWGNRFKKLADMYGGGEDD

percentage of CXCR4 positive cells (flow cytometry after 3 days of differentiation to definitive endoderm; antibody at 5 µg/mL on day 1): 93%
Substance: mouse anti-human E-cadherin antibody (Zymed Cat. No. 13-1700)
